According to patent US20100233188A1 (YEDA RESEARCH AND DEVELOPMENT, published 2010):

T1: full length APMA activated MMP-2 (human) (human, UniProt P08253 110-660)
T1 construct: mature; Active enzyme lacking the pro domain; also called full length MMP2 purified from Hila cells; active MMP-2
T1 sequence (looked up): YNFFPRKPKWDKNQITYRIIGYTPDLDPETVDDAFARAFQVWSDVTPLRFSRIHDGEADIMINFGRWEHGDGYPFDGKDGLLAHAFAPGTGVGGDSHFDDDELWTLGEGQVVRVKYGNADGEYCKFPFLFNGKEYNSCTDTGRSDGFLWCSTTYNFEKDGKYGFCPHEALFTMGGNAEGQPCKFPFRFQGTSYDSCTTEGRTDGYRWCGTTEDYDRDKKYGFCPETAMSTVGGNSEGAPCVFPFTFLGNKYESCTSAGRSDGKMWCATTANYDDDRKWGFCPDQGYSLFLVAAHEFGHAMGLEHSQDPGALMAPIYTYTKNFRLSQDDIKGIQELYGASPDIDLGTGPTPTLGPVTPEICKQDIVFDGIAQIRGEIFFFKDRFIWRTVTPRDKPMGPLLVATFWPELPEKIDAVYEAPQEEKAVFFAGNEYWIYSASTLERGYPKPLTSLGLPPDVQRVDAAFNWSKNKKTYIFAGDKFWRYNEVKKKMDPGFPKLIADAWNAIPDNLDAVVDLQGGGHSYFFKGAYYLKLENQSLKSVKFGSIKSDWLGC

B1: 13E11 monoclonal antibody (anti CoTCPP mAb) (antibody, V domains shown)
VH: EGGGLVQPGGSRKLSCAASGFTFTSFGMHWVRQAPEKGLEWVAYISSGNEIIYYADTVKGRFTISRDNPKNTLFLQMTSLRSEDTAMYYCARNYYRYGFYVMDYWGQG
VL: EIVVTQSPAILSASPGEKVTMTCRASSSVSYMHWYQQKPGSSPKPWIYATSNELASGVPARFSGSGSGTSYSLTISRVEAEDAATYYCQQWISNPLTFGAG
B2: 6C6 monoclonal antibody (anti Imisdp mAb) (antibody, V domains shown)
VH: CGGGLVKPGGSLKLSCAASGFAFSTYDMETSWIRQTPEKRLEWVATISSGGSCYTYYPDSVKGRFTISKDNARNTLYLQMETSSLRSGDTALYYCTRFRYDGWYFDVWGQG
VL: CMETTQTPLSLPVSLGDQASISCRSSQSIVHSNGNTFLEWYLQKPGQSPKLLIYKVSNCRFSGVPDRFSGSGSGTDFTLKISRVEAEDLGVYYCFQASHVPPTFGGG

Tests used:
[1] = molecular target: T2, MMP-2 catalytic domain (MMP-2cat), amino acids 110-467 of GenBank NP-032636.1 (UniProt P33434 110-467); test: enzyme kinetics with fluorogenic peptide substrate, Lineweaver-Burk plot, competitive inhibition; MMP-2cat (FIG. 4A)
T2 construct: range 110-467; also called MMP2 catalytic fragment; recombinant MMP-2 catalytic domain

[2] = molecular target: TNF-alpha-converting enzyme (TACE, ADAM-17) (UniProt P78536 215-671, limits assumed); test: cell-based or functional assay
Chain of TNF-alpha-converting enzyme (TACE, ADAM-17) (P78536 215-671 limits assumed): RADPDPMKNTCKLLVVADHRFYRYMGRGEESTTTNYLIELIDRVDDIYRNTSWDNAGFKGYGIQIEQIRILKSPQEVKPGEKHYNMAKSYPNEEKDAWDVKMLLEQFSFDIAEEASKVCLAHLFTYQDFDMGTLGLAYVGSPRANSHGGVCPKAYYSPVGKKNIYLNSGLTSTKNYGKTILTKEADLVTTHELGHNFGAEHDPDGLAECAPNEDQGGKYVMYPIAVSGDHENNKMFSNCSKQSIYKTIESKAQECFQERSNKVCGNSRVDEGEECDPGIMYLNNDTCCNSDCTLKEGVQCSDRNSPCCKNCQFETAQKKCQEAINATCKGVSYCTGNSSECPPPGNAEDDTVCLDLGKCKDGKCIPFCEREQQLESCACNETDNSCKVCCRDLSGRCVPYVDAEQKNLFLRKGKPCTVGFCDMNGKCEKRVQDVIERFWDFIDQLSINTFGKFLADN

[3] = molecular target: T3, MT1-MMP (MMP-14) catalytic domain (UniProt P50281 112-284, limits assumed); test: cell-based or functional assay
[4] = molecular target: MMP-2 (active; construct not stated at that place) (Mus musculus (Mouse), UniProt P33434 110-467, catalytic and structural zinc and calcium ions are bound; the letters cannot show them); test: cell-based or functional assay
[5] = molecular target: T4, full length APMA activated MMP-9 (human) (human, UniProt P14780 107-707); test: enzyme kinetics with fluorogenic peptide substrate, Lineweaver-Burk plot, competitive inhibition; full length APMA activated MMP-9 (FIG. 4B)
T4 construct: mature; Active enzyme lacking the pro domain; also called active MMP-9 (full length)
T4 sequence (P14780 107-707): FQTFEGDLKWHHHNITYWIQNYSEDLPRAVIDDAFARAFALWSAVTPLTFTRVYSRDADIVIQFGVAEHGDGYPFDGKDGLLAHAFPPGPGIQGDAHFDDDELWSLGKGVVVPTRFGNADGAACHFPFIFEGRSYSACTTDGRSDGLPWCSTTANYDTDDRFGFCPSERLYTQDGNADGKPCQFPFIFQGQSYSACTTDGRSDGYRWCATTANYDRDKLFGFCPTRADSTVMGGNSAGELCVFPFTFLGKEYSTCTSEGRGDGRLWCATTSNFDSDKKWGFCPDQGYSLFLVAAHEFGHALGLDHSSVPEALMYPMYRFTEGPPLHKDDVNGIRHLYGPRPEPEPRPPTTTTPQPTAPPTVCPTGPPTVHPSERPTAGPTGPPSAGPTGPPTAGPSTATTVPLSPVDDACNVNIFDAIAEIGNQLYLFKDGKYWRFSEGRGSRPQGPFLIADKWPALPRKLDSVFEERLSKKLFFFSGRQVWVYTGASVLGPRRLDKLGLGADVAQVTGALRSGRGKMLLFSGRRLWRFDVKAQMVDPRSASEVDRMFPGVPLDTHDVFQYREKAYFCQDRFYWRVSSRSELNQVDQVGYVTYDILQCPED

[6] = molecular target: T5, MMP-9 catalytic domain (recombinant catalytic fragment without the hemopexin and pro domain, APMA activated) (human, UniProt P14780 20-707); test: inhibition of fluorogenic peptide cleavage, fit assuming competitive inhibition; MMP-9 catalytic domain (FIG. 5)
T5 construct: domain: catalytic fragment (without the hemopexin and pro domain); also called MMP-9 recombinant catalytic fragment; MMP9 catalytic fragment
T5 sequence (P14780 20-707): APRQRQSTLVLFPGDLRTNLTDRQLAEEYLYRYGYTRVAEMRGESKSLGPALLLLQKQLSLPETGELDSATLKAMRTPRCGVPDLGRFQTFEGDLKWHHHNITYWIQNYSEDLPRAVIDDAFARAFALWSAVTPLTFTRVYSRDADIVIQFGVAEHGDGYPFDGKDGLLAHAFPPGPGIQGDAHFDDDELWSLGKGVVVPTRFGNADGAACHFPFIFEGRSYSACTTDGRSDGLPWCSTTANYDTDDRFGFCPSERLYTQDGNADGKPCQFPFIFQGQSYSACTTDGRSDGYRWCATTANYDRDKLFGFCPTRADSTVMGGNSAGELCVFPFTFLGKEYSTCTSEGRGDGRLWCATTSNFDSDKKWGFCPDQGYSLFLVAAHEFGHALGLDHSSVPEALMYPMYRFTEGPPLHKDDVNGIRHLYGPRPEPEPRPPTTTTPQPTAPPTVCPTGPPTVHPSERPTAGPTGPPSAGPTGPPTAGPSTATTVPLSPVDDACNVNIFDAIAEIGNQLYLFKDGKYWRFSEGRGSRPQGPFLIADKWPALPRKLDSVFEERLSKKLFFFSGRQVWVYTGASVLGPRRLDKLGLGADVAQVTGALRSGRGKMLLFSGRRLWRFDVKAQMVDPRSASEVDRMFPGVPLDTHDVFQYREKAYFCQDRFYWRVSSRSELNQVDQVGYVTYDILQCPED

[7] = molecular target: T5, MMP-9 catalytic domain (recombinant …); test: inhibition of fluorogenic peptide cleavage, fit to competitive inhibition; MMP-9 recombinant catalytic fragment (FIG. 12A)
[8] = molecular target: T1, full length APMA activated MMP-2 (human); test: inhibition of fluorogenic peptide cleavage, fit assuming competitive inhibition; full length APMA activated MMP-2 (FIG. 5)
[9] = molecular target: T3, MT1-MMP (MMP-14) catalytic domain; test: inhibition of fluorogenic peptide cleavage, fit to competitive inhibition; catalytic domain of MT1-MMP (FIG. 12B)
[10] = molecular target: T3, MT1-MMP (MMP-14) catalytic domain; test: in-vitro fluorescence enzymatic activity assay with peptide substrate
[11] = molecular target: T1, full length APMA activated MMP-2 (human); test: inhibition of fluorogenic peptide cleavage, fit to competitive inhibition; full length MMP2 purified from HeLa cells (FIG. 12B)

Binder | Ki [1] [µM] | IC50 µM, inhibition of fluorogenic peptide cleavage [2] [µM] | IC50 µM, inhibition of fluorogenic peptide cleavage [3] [µM] | IC50 µM, inhibition of fluorogenic peptide cleavage [4] [µM] | Ki [5] [µM] | Ki [6] [µM] | Ki [7] [µM] | Ki [8] [µM] | Ki [9] [µM] | Ki [10] [µM] | Ki [11] [µM]
B1 | 24 | > 30 | > 30 | 24 | 13 |  |  |  |  |  | 
B2 |  | > 30 | 14.4 |  |  | 5.8 | 1 | 3 | 14.4 | 10 | 1.4
